{"source": "paper PMC3651167", "biological_target": "wild-type rabbit PrP 121–230 (rabbit)", "test": "SEC", "data": [{"substance": "wild-type rabbit PrP 121–230 (domain or fragment)", "values": [{"measurement": "percent octamer after 4 hours", "result": 33, "unit": "%"}, {"measurement": "stoichiometry N", "result": 8}]}]}
